Paper PMC11404848, “Stenotrophomonas maltophilia uses a c-di-GMP module to sense the mammalian body temperature during infection” (PLOS Pathogens, 2024)

Tests used:
[1] = molecular target: BtsD^ΔSP (Stenotrophomonas maltophilia CGMCC 1.1788); assay: native gel or EMSA; purified BtsD^ΔSP in 2 mM HEPES, 20 mM K2HPO4, pH 7.9, 2 h at 28°C or 37°C, directly or after a gradual 30-min upshift from 0°C; native gel; fewer tetramers at 37°C
[2] = tested on: T1, BtsR (Stenotrophomonas maltophilia CGMCC 1.1788), ORF:ddddda88; assay: EMSA
T1 sequence: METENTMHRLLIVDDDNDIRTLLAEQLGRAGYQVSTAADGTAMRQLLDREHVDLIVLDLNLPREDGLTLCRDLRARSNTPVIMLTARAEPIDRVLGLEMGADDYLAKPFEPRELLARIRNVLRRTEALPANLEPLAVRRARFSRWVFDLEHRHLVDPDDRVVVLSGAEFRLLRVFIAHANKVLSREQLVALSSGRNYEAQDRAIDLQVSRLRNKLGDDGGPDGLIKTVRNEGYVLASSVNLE

| Substance | stoichiometry N [1] | binding [2] |
| --- | --- | --- |
| BtsD^ΔSP (enzyme) | 4 |  |
| CCGGTGAGGTTCGAAAAGCGGGTTCTGGTAGTGCCGGCCGCTGGCCGGCAACCCGACCTTCGCTGATTGCCGGCCAGCGGCCGGCACTACCATGCCGCTCTTGCTCCCTTTCACGCATCCCCCCCCCCCGCCCCTTGACCTCAACCAATGTTGAGGTGCGATAACAGTCTCCCCACGGCCAGCCCTCTGGCCTTCCCCACGGAGATTGCTTCA (double strand) [sod1-3 promoter probe] |  | binds |
